Measurements as given in patent US20250304643A1 (BAINAN BIOTECH, published 2025).
*1 amine or outer side, *2 acyl side, *3 side chain or, on linkers, in order; H or OH if unused. Where no end group is shown, it is not given here. Side-chain parts run from the residue outwards. [ ]: non-standard residue; d: D form. The star is where a group is joined. γGlu = O=C(O)[C@H](CCC(=O)[*:2])N[*:1]; HOOC(CH2)8CO = O=C(O)CCCCCCCCC(=O)*; Palmitoyl = CCCCCCCCCCCCCCCC(=O)*; Decanoyl = CCCCCCCCCC(=O)*; Aib = CC(C)(N)C(=O)O

T1: human glucose-dependent insulinotropic polypeptide receptor (human, UniProt P48546 22-466)
T1 sequence (looked up): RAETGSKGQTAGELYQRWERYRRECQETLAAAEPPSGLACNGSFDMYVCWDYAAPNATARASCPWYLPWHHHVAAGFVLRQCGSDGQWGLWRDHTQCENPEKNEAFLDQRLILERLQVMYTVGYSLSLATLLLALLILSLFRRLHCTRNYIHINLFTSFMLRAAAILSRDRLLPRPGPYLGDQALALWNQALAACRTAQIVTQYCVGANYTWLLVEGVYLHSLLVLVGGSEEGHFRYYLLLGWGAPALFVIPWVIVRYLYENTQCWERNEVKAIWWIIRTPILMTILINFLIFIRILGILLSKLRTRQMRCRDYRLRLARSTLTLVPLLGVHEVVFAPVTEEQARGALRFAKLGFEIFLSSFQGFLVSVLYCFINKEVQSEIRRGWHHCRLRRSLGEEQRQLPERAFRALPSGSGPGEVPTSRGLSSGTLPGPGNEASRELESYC

B1: Compound no. 36 (peptide)
peptide: Ac-H[Aib]DGTFISDYSK([γGlu-Palmitoyl])[Aib]LDNLAARDFINWLIQTKITK-OH
SMILES: CCCCCCCCCCCCCCCC(=O)N[C@@H](CCC(=O)NCCCC[C@H](NC(=O)[C@H](CO)NC(=O)[C@H](Cc1ccc(O)cc1)NC(=O)[C@H](CC(=O)O)NC(=O)[C@H](CO)NC(=O)[C@@H](NC(=O)[C@H](Cc1ccccc1)NC(=O)[C@@H](NC(=O)CNC(=O)[C@H](CC(=O)O)NC(=O)C(C)(C)NC(=O)[C@H](Cc1c[nH]cn1)NC(C)=O)[C@@H](C)O)[C@@H](C)CC)C(=O)NC(C)(C)C(=O)N[C@@H](CC(C)C)C(=O)N[C@@H](CC(=O)O)C(=O)N[C@@H](CC(N)=O)C(=O)N[C@@H](CC(C)C)C(=O)N[C@@H](C)C(=O)N[C@@H](C)C(=O)N[C@@H](CCCNC(=N)N)C(=O)N[C@@H](CC(=O)O)C(=O)N[C@@H](Cc1ccccc1)C(=O)N[C@H](C(=O)N[C@@H](CC(N)=O)C(=O)N[C@@H](Cc1c[nH]c2ccccc12)C(=O)N[C@@H](CC(C)C)C(=O)N[C@H](C(=O)N[C@@H](CCC(N)=O)C(=O)N[C@H](C(=O)N[C@@H](CCCCN)C(=O)N[C@H](C(=O)N[C@H](C(=O)N[C@@H](CCCCN)C(=O)O)[C@@H](C)O)[C@@H](C)CC)[C@@H](C)O)[C@@H](C)CC)[C@@H](C)CC)C(=O)O
B2: Compound no. 7 (peptide)
peptide: Palmitoyl-H[Aib]DGTFISDYSTILDNLAARDFIEWLIQTKITK-OH
SMILES: CCCCCCCCCCCCCCCC(=O)N[C@@H](Cc1c[nH]cn1)C(=O)NC(C)(C)C(=O)N[C@@H](CC(=O)O)C(=O)NCC(=O)N[C@H](C(=O)N[C@@H](Cc1ccccc1)C(=O)N[C@H](C(=O)N[C@@H](CO)C(=O)N[C@@H](CC(=O)O)C(=O)N[C@@H](Cc1ccc(O)cc1)C(=O)N[C@@H](CO)C(=O)N[C@H](C(=O)N[C@H](C(=O)N[C@@H](CC(C)C)C(=O)N[C@@H](CC(=O)O)C(=O)N[C@@H](CC(N)=O)C(=O)N[C@@H](CC(C)C)C(=O)N[C@@H](C)C(=O)N[C@@H](C)C(=O)N[C@@H](CCCNC(=N)N)C(=O)N[C@@H](CC(=O)O)C(=O)N[C@@H](Cc1ccccc1)C(=O)N[C@H](C(=O)N[C@@H](CCC(=O)O)C(=O)N[C@@H](Cc1c[nH]c2ccccc12)C(=O)N[C@@H](CC(C)C)C(=O)N[C@H](C(=O)N[C@@H](CCC(N)=O)C(=O)N[C@H](C(=O)N[C@@H](CCCCN)C(=O)N[C@H](C(=O)N[C@H](C(=O)N[C@@H](CCCCN)C(=O)O)[C@@H](C)O)[C@@H](C)CC)[C@@H](C)O)[C@@H](C)CC)[C@@H](C)CC)[C@@H](C)CC)[C@@H](C)O)[C@@H](C)CC)[C@@H](C)O
B3: Compound no. 35 (peptide)
peptide: H[Aib]DGTFISDYSK([γGlu-Palmitoyl])[Aib]LDNLAARDFINWLIQTKITK-OH
modifications: N-terminus assumed
SMILES: CCCCCCCCCCCCCCCC(=O)N[C@@H](CCC(=O)NCCCC[C@H](NC(=O)[C@H](CO)NC(=O)[C@H](Cc1ccc(O)cc1)NC(=O)[C@H](CC(=O)O)NC(=O)[C@H](CO)NC(=O)[C@@H](NC(=O)[C@H](Cc1ccccc1)NC(=O)[C@@H](NC(=O)CNC(=O)[C@H](CC(=O)O)NC(=O)C(C)(C)NC(=O)[C@@H](N)Cc1c[nH]cn1)[C@@H](C)O)[C@@H](C)CC)C(=O)NC(C)(C)C(=O)N[C@@H](CC(C)C)C(=O)N[C@@H](CC(=O)O)C(=O)N[C@@H](CC(N)=O)C(=O)N[C@@H](CC(C)C)C(=O)N[C@@H](C)C(=O)N[C@@H](C)C(=O)N[C@@H](CCCNC(=N)N)C(=O)N[C@@H](CC(=O)O)C(=O)N[C@@H](Cc1ccccc1)C(=O)N[C@H](C(=O)N[C@@H](CC(N)=O)C(=O)N[C@@H](Cc1c[nH]c2ccccc12)C(=O)N[C@@H](CC(C)C)C(=O)N[C@H](C(=O)N[C@@H](CCC(N)=O)C(=O)N[C@H](C(=O)N[C@@H](CCCCN)C(=O)N[C@H](C(=O)N[C@H](C(=O)N[C@@H](CCCCN)C(=O)O)[C@@H](C)O)[C@@H](C)CC)[C@@H](C)O)[C@@H](C)CC)[C@@H](C)CC)C(=O)O
B4: Compound no. 12 (peptide)
peptide: H-H[Aib]DGTFISDYSK([γGlu-Palmitoyl])ILDNLAARDFINWLIQTKITK-OH
SMILES: CCCCCCCCCCCCCCCC(=O)N[C@@H](CCC(=O)NCCCC[C@H](NC(=O)[C@H](CO)NC(=O)[C@H](Cc1ccc(O)cc1)NC(=O)[C@H](CC(=O)O)NC(=O)[C@H](CO)NC(=O)[C@@H](NC(=O)[C@H](Cc1ccccc1)NC(=O)[C@@H](NC(=O)CNC(=O)[C@H](CC(=O)O)NC(=O)C(C)(C)NC(=O)[C@@H](N)Cc1c[nH]cn1)[C@@H](C)O)[C@@H](C)CC)C(=O)N[C@H](C(=O)N[C@@H](CC(C)C)C(=O)N[C@@H](CC(=O)O)C(=O)N[C@@H](CC(N)=O)C(=O)N[C@@H](CC(C)C)C(=O)N[C@@H](C)C(=O)N[C@@H](C)C(=O)N[C@@H](CCCNC(=N)N)C(=O)N[C@@H](CC(=O)O)C(=O)N[C@@H](Cc1ccccc1)C(=O)N[C@H](C(=O)N[C@@H](CC(N)=O)C(=O)N[C@@H](Cc1c[nH]c2ccccc12)C(=O)N[C@@H](CC(C)C)C(=O)N[C@H](C(=O)N[C@@H](CCC(N)=O)C(=O)N[C@H](C(=O)N[C@@H](CCCCN)C(=O)N[C@H](C(=O)N[C@H](C(=O)N[C@@H](CCCCN)C(=O)O)[C@@H](C)O)[C@@H](C)CC)[C@@H](C)O)[C@@H](C)CC)[C@@H](C)CC)[C@@H](C)CC)C(=O)O
B5: Compound no. 8 (peptide)
peptide: Palmitoyl-H[Aib]DGTFISDYSTILDNLAARDFIEWLIQTKIT-OH
SMILES: CCCCCCCCCCCCCCCC(=O)N[C@@H](Cc1c[nH]cn1)C(=O)NC(C)(C)C(=O)N[C@@H](CC(=O)O)C(=O)NCC(=O)N[C@H](C(=O)N[C@@H](Cc1ccccc1)C(=O)N[C@H](C(=O)N[C@@H](CO)C(=O)N[C@@H](CC(=O)O)C(=O)N[C@@H](Cc1ccc(O)cc1)C(=O)N[C@@H](CO)C(=O)N[C@H](C(=O)N[C@H](C(=O)N[C@@H](CC(C)C)C(=O)N[C@@H](CC(=O)O)C(=O)N[C@@H](CC(N)=O)C(=O)N[C@@H](CC(C)C)C(=O)N[C@@H](C)C(=O)N[C@@H](C)C(=O)N[C@@H](CCCNC(=N)N)C(=O)N[C@@H](CC(=O)O)C(=O)N[C@@H](Cc1ccccc1)C(=O)N[C@H](C(=O)N[C@@H](CCC(=O)O)C(=O)N[C@@H](Cc1c[nH]c2ccccc12)C(=O)N[C@@H](CC(C)C)C(=O)N[C@H](C(=O)N[C@@H](CCC(N)=O)C(=O)N[C@H](C(=O)N[C@@H](CCCCN)C(=O)N[C@H](C(=O)N[C@H](C(=O)O)[C@@H](C)O)[C@@H](C)CC)[C@@H](C)O)[C@@H](C)CC)[C@@H](C)CC)[C@@H](C)CC)[C@@H](C)O)[C@@H](C)CC)[C@@H](C)O
B6: Compound no. 18 (peptide)
peptide: {HOOC(CH2)8CO}-H[Aib]DGTFISDYST[Aib]LDNLAARDFINWLIQTKITK-OH
SMILES: CC[C@H](C)[C@H](NC(=O)[C@H](Cc1ccccc1)NC(=O)[C@H](CC(=O)O)NC(=O)[C@H](CCCNC(=N)N)NC(=O)[C@H](C)NC(=O)[C@H](C)NC(=O)[C@H](CC(C)C)NC(=O)[C@H](CC(N)=O)NC(=O)[C@H](CC(=O)O)NC(=O)[C@H](CC(C)C)NC(=O)C(C)(C)NC(=O)[C@@H](NC(=O)[C@H](CO)NC(=O)[C@H](Cc1ccc(O)cc1)NC(=O)[C@H](CC(=O)O)NC(=O)[C@H](CO)NC(=O)[C@@H](NC(=O)[C@H](Cc1ccccc1)NC(=O)[C@@H](NC(=O)CNC(=O)[C@H](CC(=O)O)NC(=O)C(C)(C)NC(=O)[C@H](Cc1c[nH]cn1)NC(=O)CCCCCCCCC(=O)O)[C@@H](C)O)[C@@H](C)CC)[C@@H](C)O)C(=O)N[C@@H](CC(N)=O)C(=O)N[C@@H](Cc1c[nH]c2ccccc12)C(=O)N[C@@H](CC(C)C)C(=O)N[C@H](C(=O)N[C@@H](CCC(N)=O)C(=O)N[C@H](C(=O)N[C@@H](CCCCN)C(=O)N[C@H](C(=O)N[C@H](C(=O)N[C@@H](CCCCN)C(=O)O)[C@@H](C)O)[C@@H](C)CC)[C@@H](C)O)[C@@H](C)CC

Target: T1, human glucose-dependent insulinotropic …
Test: cell-based or functional assay

| Binder | Efficacy GIPR [%] | EC50 (nM) GIPR [nM] |
| --- | --- | --- |
| Decanoyl-HADGTFISDYSTILDNLAAKDFINWLIQTKITKNDWKHNITQ [Compound no. 3] | 76 |  |
| H[Aib]DGTFISDYK([γGlu-Palmitoyl])T[Aib]LDNLAARDFINWLIQTKITKNDWKHNITQ-OH [Compound no. 37] | 95 |  |
| B1 | 92 | 1 |
| Palmitoyl-HADGTFISDYSTILDNLAAKDFINWLIQTKITK [Compound no. 45] | 91 |  |
| B2 | 114 |  |
| B3 | 106 |  |
| Palmitoyl-HADGTFISDYSTILDNLAARDFINWLIQTKITD [Compound no. 1] | 96 |  |
| B4 | 107 |  |
| Palmitoyl-HADGTFISDYSTILDNLAARDFINWLIQTKITD [Compound no. 4] | 96 |  |
| B5 | 108 |  |
| B6 | 77 |  |
